The target in data set [1] is mouse RBPj (aa 53-474) (mouse, UniProt P31266 53-474). As to the kind of experiment: native gel or EMSA. (In general: A gel shift assay detects complexes by their altered migration in electrophoresis.)
Data set [2] concerns the molecule itself. Briefly: native gel or EMSA.

Chain of mouse RBPj (aa 53-474) (P31266 53-474): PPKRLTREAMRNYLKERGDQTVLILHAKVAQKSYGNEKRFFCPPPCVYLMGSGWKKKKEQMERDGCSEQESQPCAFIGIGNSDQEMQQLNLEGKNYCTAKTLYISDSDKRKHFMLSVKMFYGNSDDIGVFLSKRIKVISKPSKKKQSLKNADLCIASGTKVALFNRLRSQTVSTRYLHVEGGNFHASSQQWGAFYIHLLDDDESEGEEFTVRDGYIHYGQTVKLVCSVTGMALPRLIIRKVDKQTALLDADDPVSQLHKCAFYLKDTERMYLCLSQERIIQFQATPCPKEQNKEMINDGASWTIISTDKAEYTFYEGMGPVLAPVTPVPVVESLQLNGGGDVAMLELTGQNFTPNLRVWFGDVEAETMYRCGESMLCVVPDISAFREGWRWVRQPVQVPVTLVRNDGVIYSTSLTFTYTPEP

B1: human SMT3-MAML1 (aa 1-280) (domain or fragment, UniProt Q92585 1-280, looked up)
chain: MVLPTCPMAEFALPRHSAVMERLRRRIELCRRHHSTCEARYEAVSPERLELERQHTFALHQRCIQAKAKRAGKHRQPPAATAPAPAAPAPRLDAADGPEHGRPATHLHDTVKRNLDSATSPQNGDQQNGYGDLFPGHKKTRREAPLGVAISSNGLPPASPLGQSDKPSGADALQSSGKHSLGLDSLNKKRLADSSLHLNGGSNPSESFPLSLNKELKQEPVEDLPCMITGTVGSISQSNLMPDLNLNEQEWKELIEELNRSVPDEDMKDLFNEDFEEKKD
As to B1, in data set [1], the binding result is “binds”.

B2: mouse N1ICD (aa 1744-2113) (domain or fragment, UniProt Q01705 1744-2113, looked up)
chain: VLLSRKRRRQHGQLWFPEGFKVSEASKKKRREPLGEDSVGLKPLKNASDGALMDDNQNEWGDEDLETKKFRFEEPVVLPDLSDQTDHRQWTQQHLDAADLRMSAMAPTPPQGEVDADCMDVNVRGPDGFTPLMIASCSGGGLETGNSEEEEDAPAVISDFIYQGASLHNQTDRTGETALHLAARYSRSDAAKRLLEASADANIQDNMGRTPLHAAVSADAQGVFQILLRNRATDLDARMHDGTTPLILAARLAVEGMLEDLINSHADVNAVDDLGKSALHWAAAVNNVDAAVVLLKNGANKDMQNNKEETPLFLAAREGSYETAKVLLDHFANRDITDHMDRLPRDIAQERMHHDIVRLLDEYNLVRSPQ
On to B2, for which the binding result in data set [1] and in data set [2] was “binds” throughout.

B3: mouse N1^RAICD (aa 1744-2113) (domain or fragment, UniProt Q01705 1744-2113, looked up)
chain: VLLSRKRRRQHGQLWFPEGFKVSEASKKKRREPLGEDSVGLKPLKNASDGALMDDNQNEWGDEDLETKKFRFEEPVVLPDLSDQTDHRQWTQQHLDAADLRMSAMAPTPPQGEVDADCMDVNVRGPDGFTPLMIASCSGGGLETGNSEEEEDAPAVISDFIYQGASLHNQTDRTGETALHLAARYSRSDAAKRLLEASADANIQDNMGRTPLHAAVSADAQGVFQILLRNAATDLDARMHDGTTPLILAARLAVEGMLEDLINSHADVNAVDDLGKSALHWAAAVNNVDAAVVLLKNGANKDMQNNKEETPLFLAAREGSYETAKVLLDHFANRDITDHMDRLPRDIAQERMHHDIVRLLDEYNLVRSPQ
B3: the binding result in data set [1] is on record as “binds”.

(Values after publication doi:10.1101/2020.02.13.948224 (bioRxiv, 2020).)
